Read-outs that look alike come from different tables or passages of the source.
Tests used:
[1] = target: alpha1a adrenergic receptor (expressed in Pichia pastoris, membranes)
[2] = target: alpha1a adrenergic receptor (expressed in Pichia pastoris, membranes); remark: listed apart in the source
[3] = target: alpha1d adrenergic receptor (expressed in Pichia pastoris, membranes)
[4] = target: alpha2a adrenergic receptor (expressed in Pichia pastoris, membranes)
[5] = target: beta1 adrenergic receptor (expressed in Pichia pastoris, membranes)
[6] = target: alpha1a adrenergic receptor (expressed in Pichia pastoris, membranes); remark: listed apart in the source

Sequence of alpha1a adrenergic receptor (expressed in Pichia pastoris, membranes) (P35348 whole entry): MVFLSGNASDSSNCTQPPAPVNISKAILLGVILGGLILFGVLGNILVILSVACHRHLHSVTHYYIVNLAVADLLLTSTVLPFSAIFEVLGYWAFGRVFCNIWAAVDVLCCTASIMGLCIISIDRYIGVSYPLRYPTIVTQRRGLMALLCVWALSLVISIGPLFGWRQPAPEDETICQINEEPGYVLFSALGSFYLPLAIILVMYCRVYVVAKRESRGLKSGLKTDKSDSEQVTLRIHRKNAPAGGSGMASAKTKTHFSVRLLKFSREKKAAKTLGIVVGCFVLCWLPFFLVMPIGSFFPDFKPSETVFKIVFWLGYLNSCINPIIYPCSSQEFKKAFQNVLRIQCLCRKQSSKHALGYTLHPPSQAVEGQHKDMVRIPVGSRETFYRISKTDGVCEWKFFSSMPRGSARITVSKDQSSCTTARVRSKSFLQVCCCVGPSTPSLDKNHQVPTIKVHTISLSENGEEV
Sequence of alpha1d adrenergic receptor (expressed in Pichia pastoris, membranes) (P25100 whole entry): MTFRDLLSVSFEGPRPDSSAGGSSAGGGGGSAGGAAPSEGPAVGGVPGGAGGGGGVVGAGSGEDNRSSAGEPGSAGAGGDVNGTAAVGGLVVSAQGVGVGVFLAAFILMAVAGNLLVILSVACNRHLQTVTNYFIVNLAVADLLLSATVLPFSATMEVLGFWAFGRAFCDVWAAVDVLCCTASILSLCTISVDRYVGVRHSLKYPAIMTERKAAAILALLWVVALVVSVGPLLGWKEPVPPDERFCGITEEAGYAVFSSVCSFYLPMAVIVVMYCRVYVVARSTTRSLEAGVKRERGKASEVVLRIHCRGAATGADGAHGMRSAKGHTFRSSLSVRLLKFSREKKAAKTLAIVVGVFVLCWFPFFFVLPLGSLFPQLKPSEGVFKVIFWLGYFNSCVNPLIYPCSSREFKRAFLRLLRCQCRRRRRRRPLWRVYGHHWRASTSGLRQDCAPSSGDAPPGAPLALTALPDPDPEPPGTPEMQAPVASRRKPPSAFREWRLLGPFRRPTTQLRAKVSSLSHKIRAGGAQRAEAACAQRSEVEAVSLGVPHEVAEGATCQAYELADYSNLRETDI
Sequence of alpha2a adrenergic receptor (expressed in Pichia pastoris, membranes) (P08913 whole entry): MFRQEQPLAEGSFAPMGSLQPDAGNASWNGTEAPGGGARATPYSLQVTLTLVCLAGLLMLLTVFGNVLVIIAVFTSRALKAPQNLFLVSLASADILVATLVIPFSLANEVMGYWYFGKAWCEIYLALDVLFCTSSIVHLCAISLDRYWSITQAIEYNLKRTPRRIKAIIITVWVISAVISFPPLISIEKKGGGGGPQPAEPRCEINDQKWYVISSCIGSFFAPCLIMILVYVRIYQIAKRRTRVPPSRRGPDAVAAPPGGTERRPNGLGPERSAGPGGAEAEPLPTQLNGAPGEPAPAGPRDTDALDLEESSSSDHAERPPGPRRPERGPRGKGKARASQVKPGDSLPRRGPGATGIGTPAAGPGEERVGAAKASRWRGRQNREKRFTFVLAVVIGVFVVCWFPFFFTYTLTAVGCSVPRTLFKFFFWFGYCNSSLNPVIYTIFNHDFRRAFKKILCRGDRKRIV
Sequence of beta1 adrenergic receptor (expressed in Pichia pastoris, membranes) (P08588 whole entry): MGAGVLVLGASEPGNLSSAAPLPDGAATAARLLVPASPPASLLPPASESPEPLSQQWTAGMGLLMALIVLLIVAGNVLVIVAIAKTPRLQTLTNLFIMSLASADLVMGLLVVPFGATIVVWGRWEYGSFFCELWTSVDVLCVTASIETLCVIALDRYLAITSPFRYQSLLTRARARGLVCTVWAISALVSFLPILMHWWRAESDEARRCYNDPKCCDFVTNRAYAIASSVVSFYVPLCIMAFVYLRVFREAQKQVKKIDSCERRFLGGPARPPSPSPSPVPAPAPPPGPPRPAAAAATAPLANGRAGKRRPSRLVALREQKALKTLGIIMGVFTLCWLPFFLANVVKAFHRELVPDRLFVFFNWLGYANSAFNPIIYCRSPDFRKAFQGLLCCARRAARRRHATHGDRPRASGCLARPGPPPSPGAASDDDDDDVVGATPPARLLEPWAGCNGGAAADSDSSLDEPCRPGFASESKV

| Substance | IC50 [1] [nM] | IC50 [2] [nM] | IC50 [3] [µM] | IC50 [4] [µM] | IC50 [5] [µM] | Kd [6] [nM] |
| --- | --- | --- | --- | --- | --- | --- |
| AdTx1 peptide | 0.5 | 1.8 | 9.9 | > 50 | > 50 |  |
| radiolabeled AdTx1 peptide (125I-AdTx1) |  |  |  |  |  | 0.8 |
